Laboratory results from publication PMC11480844.

B1: H2-Kb / B10 (parent)
chain 1: GQQVQQSPASLVLQEGENAELQCNFSSTATRLQWFYQRPGGSLVSLLSNPSGTKHTGRLTSTTVTKERRGSLHISSSQITDSGTYLCAPGGSNAKLTFGKGTKLSVKS
chain 2: DPKIIQKPKYLVAVTGSEKILICEQYLGHNAMYWYRQSAKKPLEFMFSYSYQKLMDNQTASSRFQPQSSKKNHLDLQITALKPDDSATYFCASSLRGGNNQAPLFGEGTRLSVL
chain 3: not shown
chain 4: IQKTPQIQVYSRHPPENGKPNILNCYVTQFHPPHIEIQMLKNGKKIPKVEMSDMSFSKDWSFYILAHTEFTPTETDTYACRVKHDSMAEPKTVYWDRDM
chain 5: SIINFEKL
B2: H2-Kb / H6 (parent)
chain 1: AQKVTQTQTSISVMEKTTVTMDCVYETQDSSYFLFWYKQTASGEIVFLIRQDSYKKENATVGHYSLNFQKPKSSIGLIITATQIEDSAVYFCAMRDYNQGKLIFGQGTKLSIKP
chain 2: EAAVTQSPRSKVAVTGGKVTLSCHQTNNHDYMYWYRQDTGHGLRLIHYSYVADSTEKGDIPDGYKASRPSQENFSLILELASLSQTAVYFCASSGTAANSDYTFGSGTRLLVI
chain 3: not shown
chain 4: B1 chain 4
chain 5: SIINFEKL

Variants of: B1
Experiment: % of reporter cells activated (NFAT-GFP), raw
Conditions: with B10; scale: % of reporter cells activated
Note: test concentration or dose not given here.

Ratio to parent of substitutions, site by site:
chain 5 I2: V 2.51; N 0.875; S 1.22; R 1.05
chain 5 I3: P 0.949; S 1.22; N 0.966; V 1.12; G 1.61; C 0.746; E 1.13; L 1.93; R 0.903; D 0.864; K 1.47; M 1.2; Q 0.61; W 0.831; Y 1.97; T 1.44; F 0.897; A 0.702; H 1.53
chain 5 E6: P 0.983; H 0.924; G 1.53; F 1.74; D 1.26; N 0.915; R 1.9; A 0.973; C 1.72; Y 1.57; S 1.65; M 1.2; L 1.28; T 1.75; Q 1.31; I 0.763; K 1.31; V 1.44; W 1.09
chain 5 F5: M 1.49; Q 1.64; N 2.03; C 1.1; L 2.41; W 1.03; T 0.847; G 1.63; S 1.46; Y 1.41; I 1.83; R 1.1; H 1.27; D 4.25; A 1.31; P 1.86; E 2.36; K 1.49; V 1.02
chain 5 K7: C 1.34; G 0.898; M 2.2; E 1.37; P 1.37; I 2.29; H 2.02; F 1.64; D 1.09; A 1.64; L 1.85; N 1.54; Q 0.636; R 1.17

Variants of: B2
Experiment: % of reporter cells activated (NFAT-GFP), raw
Conditions: with H6; scale: % of reporter cells activated

Ratio to parent: each site, then its substitutions
chain 5 S1: D 1.53; K 0.384; G 0.517; P 0.141; L 0.355; E 0.709; T 0.524; Y 0.424; F 0.276; R 0.333; C 0.188; V 0.294; W 0.292; H 0.446; I 0.338; N 0.416; A 0.556; Q 0.602; M 0.536
chain 5 L8: A 0.199; S 0.129; N 0.433; Y 0.729; T 0.521; R 0.406; C 0.28; F 0.32; M 0.538; P 0.26; I 0.888; E 0.214; G 0.36; K 0.13; W 0.248; Q 0.131; H 0.825; V 0.537; D 0.209
chain 5 I3: Y 0.236; F 0.342; K 0.236; V 1.57; G 0.962; P 1.18; H 0.61; L 1.02; R 0.295; S 0.872; E 1.19; W 0.281; Q 1.11; T 0.955; N 1.09; M 1.62
chain 5 N4: V 0.0988; M 0.111; D 0.132; A 0.202; F 0.335; H 0.91; L 0.146; Q 0.117; K 0.126; Y 0.358; G 0.445; T 0.143; R 0.102; W 0.672; C 0.206; E 0.2; S 0.295; I 0.116; P 0.519
chain 5 K7: P 0.11; V 0.261; S 0.0877; G 0.072; Y 0.162; D 0.0822; L 0.112; I 0.231; W 0.129; T 0.111; H 0.809; R 1.36; F 0.111; C 0.125; E 0.122; N 0.0979; M 0.188; Q 0.102; A 0.097
